Measurements reported in paper PMC3721995.
Ends that are not written are not given here. * marks the point of attachment. Biotin = O=C1N[C@H]2[C@H](CS[C@H]2CCCCC(=O)*)N1

These binders were tested against recombinant HIV-1 gp120BaL protein (HIV-1 (isolate BaL)) (assay: ELISA; solid-phase ELISA; gp120BaL coated at 8 ug/ml (50 mM bicarbonate pH 9.6, 4°C, 16 h); biotinylated peptides at 30 ug/ml in 20 mM Tris-HCl pH 7.4, 0.05% Tween-20, 37°C, 60 min; detected with AP-streptavidin, read at 405 nm).

Binder | relative binding
Biotin-NCGHGEDAGVICSA (cysteine pairing not given here) [SRCR1 peptide P20] | 1.5
Biotin-GWLSHNCGHGEDAGV [SRCR1 peptide P19, biotinylated] | 7.5
Biotin-GSGPIALDDVRCSGH [SRCR1 peptide P14] | 1.5
Biotin-VEILYRGSWGTVCDD [SRCR1 peptide P5] | 4
Biotin-ALDDVRCSGHESYLW [SRCR1 peptide P15] | 2
Biotin-RGSWGTVCDDSWDTN [SRCR1 peptide P6] | 4.5
